FireProtDB (doi:10.1002/pro.5560070624)

B1: Ferrienterobactin receptor, P05825 (parent)
chain: MNKKIHSLALLVNLGIYGVAQAQEPTDTPVSHDDTIVVTAAEQNLQAPGVSTITADEIRKNPVARDVSKIIRTMPGVNLTGNSTSGQRGNNRQIDIRGMGPENTLILIDGKPVSSRNSVRQGWRGERDTRGDTSWVPPEMIERIEVLRGPAAARYGNGAAGGVVNIITKKGSGEWHGSWDAYFNAPEHKEEGATKRTNFSLTGPLGDEFSFRLYGNLDKTQADAWDINQGHQSARAGTYATTLPAGREGVINKDINGVVRWDFAPLQSLELEAGYSRQGNLYAGDTQNTNSDSYTRSKYGDETNRLYRQNYALTWNGGWDNGVTTSNWVQYEHTRNSRIPEGLAGGTEGKFNEKATQDFVDIDLDDVMLHSEVNLPIDFLVNQTLTLGTEWNQQRMKDLSSNTQALTGTNTGGAIDGVSTTDRSPYSKAEIFSLFAENNMELTDSTIVTPGLRFDHHSIVGNNWSPALNISQGLGDDFTLKMGIARAYKAPSLYQTNPNYILYSKGQGCYASAGGCYLQGNDDLKAETSINKEIGLEFKRDGWLAGVTWFRNDYRNKIEAGYVAVGQNAVGTDLYQWDNVPKAVVEGLEGSLNVPVSETVMWTNNITYMLKSENKTTGDRLSIIPEYTLNSTLSWQAREDLSMQTTFTWYGKQQPKKYNYKGQPAVGPETKEISPYSIVGLSATWDVTKNVSLTGGVDNLFDKRLWRAGNAQTTGDLAGANYIAGAGAYTYNEPGRTWYMSVNTHF

Variants of: B1
Settings: Escherichia coli (strain K12); pH 7; 25 °C; GdnHCl; ESR; MOPS 20 mM; structure 1FEP; whole UniProt chain shown

| Variant | denaturant m value [kcal/mol/M] | denaturant midpoint (higher = more stable) [M] |
| --- | --- | --- |
| E270C | 4.08 | 1.65 |
| E272C | 5.76 | 1.57 |
| L266C | 3.25 | 2.28 |
| G274C | 5.28 | 1.5 |
| Q278C | 1.31 | 1.91 |
| S268C | 4.21 | 1.77 |
| S276C | 4.61 | 1.29 |
